Laboratory results reported in patent US20120058118A1 (Boehringer Ingelheim, published 2012).
Substitutions are numbered along the chain they refer to. Values belong to the binder of their own block, whether it stands above or below them. Ends that are not written are not given here. * marks the point of attachment. Biotin = O=C1N[C@H]2[C@H](CS[C@H]2CCCCC(=O)*)N1

Assays:
[1] = biological target: T1, aggregated A-beta(1-40) peptide (BAA) (human); assay: BAA ELISA
T1 construct: also called A-beta peptide aggregates

[2] = biological target: T2, human A-beta(1-40) peptide, monomeric (BAM) (human, biotin at the C-terminus in capture ELISA, SPR and TR-FRET; not biotinylated where coated directly (Example 7)); assay: BAM ELISA
T2 construct: synthetic peptide (Anaspec), TFA/HFIP treated to give monomer; also called monomeric A-beta

[3] = biological target: T2, human A-beta(1-40) peptide, monomeric …; assay: TR-FRET competition, mean IC50
[4] = biological target: T2, human A-beta(1-40) peptide, monomeric …; assay: TR-FRET competition; labelled competitor not given
[5] = biological target: T2, human A-beta(1-40) peptide, monomeric …; assay: TR-FRET competition, labelled ABII42D4
[6] = biological target: T2, human A-beta(1-40) peptide, monomeric …; assay: ABII050 TR-FRET competition assay
[7] = biological target: T1, aggregated A-beta(1-40) peptide (BAA); assay: BAA ELISA; remark: listed apart in the source
[8] = biological target: T2, human A-beta(1-40) peptide, monomeric …; assay: BAM ELISA; remark: listed apart in the source
[9] = biological target: T3, A-beta(12-28) peptide (human); assay: SPR on captured A-beta(12-28)
T3 construct: Bachem peptide captured on streptavidin chip; also called monomeric A-beta(12-28); central region
T3 peptide: Biotin-VHHQKLVFFAEDVGSNK
Description: After capturing, surfaces are blocked by injecting an excess (200 μg/ml) of d-biotin for 180 s at 5 μl/min. A reference surface is washed and blocked with d-biotin. HBS-EP+buffer is used as the running buffer and experiments are performed at 25° C. For off-rate screening, periplasmic extracts of VHHs are injected at a 10-fold dilution for 2 min at 45 μl/min and are allowed to dissociate for 10 min. […] Between different VHH samples, the surfaces are regenerated with regeneration buffer (50 mM NaOH) for 25 s at 45 μl/min followed by 10 s 6M GuHCl at 45 μl/min if regeneration is incomplete. […] Data are double referenced by subtraction of the curves on the reference channel and of a blank running buffer injection. Sensorgrams are evaluated by fitting a 1:1 dissociation model using the Biacore T100 Evaluation software v1.1.1.

[10] = biological target: T2, human A-beta(1-40) peptide, monomeric …; assay: TR-FRET competition, labelled ABII60A10; extrapolated curve

B2: ABII014 (VHH)
VHH: EVQLLESGGGLVLPGGSLRLSCVHSGPTFRTDTMGWFRQAPGKGREFVAAVTWNSGRINYADSVKGRFTVSRDNTRNAAYLQMSGLRDEDTAVYYCTAHRFVVGGNRVEDWRYWGQGTLVTVSS
notes: humanized variant of ABII002
- IC50 [3]: 1.3 nM
- IC50 [4]: 1.3 nM

B3: ABII031 (VHH)
VHH: B2 VHH with L13Q, V70I, T75S, R76K, A79V, G85S, D88P, T97A
notes: humanized variant of ABII002
- IC50 [3]: 13 nM
- IC50 [4]: 13 nM

B4: ABII032 (VHH)
VHH: B2 VHH with L13Q, V70I, T75S, R76K, S84N, G85S, D88P, T97A
notes: humanized variant of ABII002
- IC50 [3]: 4.9 nM
- IC50 [4]: 4.9 nM

B5: ABII025 (VHH)
VHH: B2 VHH with L13Q, V23A, V70I, T75S, R76K, A78T, A79V, G85S, D88P, T97A
notes: humanized variant of ABII002
- IC50 [3]: 18 nM
- IC50 [4]: 18 nM

B6: ABII036 (VHH)
VHH: B2 VHH with L13Q, V70I, T75S, R76K, A78T, G85S, D88P, T97A
notes: humanized variant of ABII002
- IC50 [3]: 3.5 nM
- IC50 [4]: 3.5 nM

B7: ABII023 (VHH)
VHH: B2 VHH with L13Q, V23A, V70I, T75S, R76K, S84N, G85S, D88P, T97A
notes: humanized variant of ABII002
- IC50 [3]: 5.8 nM
- IC50 [4]: 5.8 nM

B8: ABII033 (VHH)
VHH: B2 VHH with L13Q, V70I, T75S, R76K, G85S, D88P, T97A
notes: humanized variant of ABII002
- IC50 [3]: 4 nM
- IC50 [4]: 4 nM

B9: ABII034 (VHH)
VHH: B2 VHH with L13Q, V70I, T75S, R76K, A78T, A79V, G85S, D88P, T97A
notes: humanized variant of ABII002
- IC50 [3]: 10 nM
- IC50 [4]: 10 nM

B10: ABII028 (VHH)
VHH: B2 VHH with L13Q, V70I, T75S, R76K, A78T, A79V, S84N, G85S, D88P, T97A
notes: humanized variant of ABII002
- IC50 [3]: 11 nM
- IC50 [4]: 11 nM

B11: ABII024 (VHH)
VHH: B2 VHH with L13Q, V23A, V70I, T75S, R76K, G85S, D88P, T97A
notes: humanized variant of ABII002
- IC50 [3]: 6 nM
- IC50 [4]: 6 nM

B12: ABII027 (VHH)
VHH: B2 VHH with L13Q, V23A, V70I, T75S, R76K, A78T, G85S, D88P, T97A
notes: humanized variant of ABII002
- IC50 [3]: 4.4 nM
- IC50 [4]: 4.4 nM

B13: ABII029 (VHH)
VHH: B2 VHH with L13Q, V70I, T75S, R76K, A78T, A79L, S84N, G85S, D88P, T97A
notes: humanized variant of ABII002
- IC50 [3]: 89 nM
- IC50 [4]: 89 nM

B14: ABII021 (VHH)
VHH: B2 VHH with L13Q, V23A, V70I, T75S, R76K, A79V, S84N, G85S, D88P, T97A
notes: humanized variant of ABII002
- IC50 [3]: 24 nM
- IC50 [4]: 24 nM

B15: ABII030 (VHH)
VHH: B2 VHH with L13Q, V70I, T75S, R76K, A79V, S84N, G85S, D88P, T97A
notes: humanized variant of ABII002
- IC50 [3]: 12 nM
- IC50 [4]: 12 nM

B16: ABII022 (VHH)
VHH: B2 VHH with L13Q, V23A, V70I, T75S, R76K, A79V, G85S, D88P, T97A
notes: humanized variant of ABII002
- IC50 [3]: 16 nM
- IC50 [4]: 16 nM

B17: ABII026 (VHH)
VHH: B2 VHH with L13Q, V23A, V70I, T75S, R76K, A78T, S84N, G85S, D88P, T97A
notes: humanized variant of ABII002
- IC50 [3]: 5.1 nM
- IC50 [4]: 5.1 nM

B21: ABII018 (VHH)
VHH: B2 VHH with L13Q, R87K, D88P
notes: humanized variant of ABII002
- IC50 [3]: 3.2 nM
- IC50 [4]: 3.2 nM

B22: ABII017 (VHH)
VHH: B2 VHH with R87K, T97A
notes: humanized variant of ABII002
- IC50 [3]: 2.4 nM
- IC50 [4]: 2.4 nM

B29: ABII016 (VHH)
VHH: B2 VHH with R87K, D88P
notes: humanized variant of ABII002
- IC50 [3]: 2.4 nM
- IC50 [4]: 2.4 nM

B31: ABII015 (VHH)
VHH: B2 VHH with R87K, D88A
notes: humanized variant of ABII002
- IC50 [3]: 1.8 nM
- IC50 [4]: 1.8 nM

B38: ABII019 (VHH)
VHH: EVQLLESGGGLVQPGGSLRLSCAHSGPTFRTDTMGWFRQAPGKGREFVAAVTWNSGRINYADSVKGRFTISRDNSKNTVYLQMNSLRPEDTAVYYCAAHRFVVGGNRVEDWRYWGQGTLVTVSS
notes: humanized variant of ABII002
- IC50 [3]: 14 nM
- IC50 [4]: 14 nM

B39: ABII020 (VHH)
VHH: B38 VHH with V79L
notes: humanized variant of ABII002
- IC50 [3]: 110 nM
- IC50 [4]: 110 nM

Now from value to binder:

- binding result [1]: no binding
- binding result [2]: no binding
B1: reference VHH 31-1 (VHH)
VHH: EVQLQASGGGSVQPGGSLRLSCAASGFIFGWSTMSWVRQAPGKGLEWVSTISGGGSATTYTDSVKGRFTISRDRAKNTLYLQMNSLKPEDTAIYYCNADVSTGFRYQRKDYWGRGTQVTVSS
notes: from WO2004/44204; also called V31-1

- IC50 [5]: 10 nM
B18: ABII111B5_N106V (VHH)
VHH: B2 VHH with L5V, P14A, G44E, R87K, N106V, R107M, L119Q
notes: targeted mutant

- IC50 [5]: 3.4 nM
B19: ABIIPMP111F2 (VHH)
VHH: EVQLVESGGGLVLAGGSLRLSCVHSGPTFSTDTMGWFRQAPGKEREFVAAVTWNSGRTNYADSVKGRFTVSRDNTRNAAYLQMSGLKDEDTAVYYCTANRHSVGRLSVGDWRYWGQGSQVTVSS
notes: c-myc and (His)6 tags

- IC50 [5]: 5.3 nM
B20: ABII111B5_R30K (VHH)
VHH: B2 VHH with L5V, P14A, R30K, G44E, R87K, R107M, L119Q
notes: targeted mutant

- IC50 [5]: 8.8 nM
B23: ABII111E5cl1 (VHH)
VHH: B2 VHH with L5V, P14A, R30L, G44E, R87K, N106R, R107E, E109Q, L119Q
notes: c-myc and (His)6 tags

- IC50 [5]: 6.1 nM
B24: ABIIPMP111E4 (VHH)
VHH: B19 VHH with N99A, H101L, S102T, R105S, S118T
notes: c-myc and (His)6 tags

- IC50 [5]: 5.1 nM
B25: ABIIPMP111B4 (VHH)
VHH: EVQLVESGGGLVLAGGSLRLSCVHSGPTFWTDTMGWFRQAPGKEREFVAAVTWSSGRANYADSVKGRFTVSRDNTRNAAYLQMSGLKDEDTAVYYCTAHRGVVGGWVVVDWRYWGQGTQVTVSS
notes: c-myc and (His)6 tags

- IC50 [5]: 8.6 nM
B26: ABIIPMP111C4 (VHH)
VHH: B25 VHH with W30L, S54N, G101S, W106V, V107G, V109W, G115S
notes: c-myc and (His)6 tags

- IC50 [5]: 4.7 nM
B27: ABII111B5_E109W (VHH)
VHH: B2 VHH with L5V, P14A, G44E, R87K, R107M, E109W, L119Q
notes: targeted mutant

- IC50 [5]: 5 nM
B28: ABII111B5_R30W (VHH)
VHH: B25 VHH with S54N, A58I, G101F, W106N, V107M, V109E
notes: targeted mutant

- IC50 [5]: 9.2 nM
B30: ABII111B5_N106T (VHH)
VHH: B2 VHH with L5V, P14A, G44E, R87K, N106T, R107M, L119Q
notes: targeted mutant

- IC50 [5]: 19 nM
B32: ABIIPMP111B9 (VHH)
VHH: B25 VHH with W30G, S54N, G101F, W106G, V107C, V109K
notes: c-myc and (His)6 tags

- IC50 [5]: 7.3 nM
B33: ABII111B5_F101W (VHH)
VHH: B2 VHH with L5V, P14A, G44E, R87K, F101W, R107M, L119Q
notes: targeted mutant

- IC50 [5]: 6 nM
B34: ABIIPMP111C6 (VHH)
VHH: B25 VHH with S54N, A58L, G101Q, W106V, V107Q, V109L
notes: c-myc and (His)6 tags

- binding result [1]: no binding
- binding result [2]: no binding
B35: reference VHH 11G (VHH)
VHH: QVQLQESGGGLVQPGGSLRLSCAASGSIFSINTMAWYRQAPGKERDLVAAIISSGSTNYADSVKGRFTISRDNTKNTVYLQMNSLKLEDTAVYYCNAAIRRSVIDAWGAYWGQGTQVTVSS
notes: from WO2007/35092

- IC50 [6]: 0.31 nM
B36: ABII315-PEG40 (designed binder)
chain: EVQLLESGGGLVQPGGSLRLSCAASGRTFNNYNMGWFRQAPGKGREFVAAVSRSGVSTYYADSVKGRFTISRDNSKNTVYLQMNSLRPEDTAVYYCAAAYRGTAINVRRSYSSWGQGTLVTVSSGGGGCGGGSEVQLLESGGGLVQPGGSLRLSCVHSGPTFRTDTMGWFRQAPGKGREFVAAVTWNSGRINYADSVKGRFTISRDNSKNTAYLQMNSLRPEDTAVYYCAAHRFVVGGNRVEDWRYWGQGTLVTVSS
modifications: PEG40 on the Cys at position 5 of the 9GS linker
notes: 059-9GSC-035; purified as His6-tagged construct before PEGylation

- binding result [1]: no binding
- binding result [2]: no binding
B37: reference VHH 3A (VHH)
VHH: AVQLVESGGGLVRDGDSLRLSCAASGRTFSSYVMGWFRQAPGKEREFVAAIGWSGGSTAYADSVKGRFTISRDNARNTVYLQMNSLKPEDTAVYYCASAPTRWVPRDSRFYDRWGQGTRVTVSS
notes: from WO2007/35092

- binding result [1]: no binding
- binding result [2]: no binding
B40: reference VHH 1B (VHH)
VHH: QVQLQESGGGLVQPGGSLRLSCAASEFTLDYYSIAWFRQAPGKEREGVSCISSYDGSTSYADSVKGRFTISRDNAKNTVYLQMNSLKPEDTAIYYCAAGIRDWATLREYEYDDWGQGTQVTVSS
notes: from WO2007/35092

- EC50 [7]: 14.5 nM
- EC50 [8]: 469 nM
- binding result [9]: binds
- IC50 [10]: 967 nM
B41: ABII61F6 (VHH)
VHH: EVQLVESGGGLVQTGGSLRLSCAASGSTVNINAMGWYRQAPGKQRELVAIINKRGVTNYADSTEGRFTISRDNSKRTLYLQMNSLKPEDTAVYYCNAVVGRYGRTYGYWGQGTQVTVSS
